Source: patent publication US20230159655A1

Legend:
[1] = biological target: CD73 endogenously expressed on the cell surface (MDA-MB-231 cells; U87-MG cells) (UniProt P21589); assay: flow cytometry on MDA-MB-231 cells; antibody […]
[2] = biological target: CD73 endogenously expressed on the cell surface (MDA-MB-231 cells; U87-MG cells) (UniProt P21589); assay: flow cytometry on MDA-MB-231 cells; antibody 100.00 nM
[3] = biological target: CD73 endogenously expressed on the cell surface (MDA-MB-231 cells; U87-MG cells) (UniProt P21589); assay: flow cytometry on MDA-MB-231 cells; antibody 3.70 nM
[4] = biological target: human NT5E-Biotin (NT5E, GenbankID: NP_002517.1, position: 1-552) (human) (UniProt P21589); assay: ELISA on SA-captured NT5E-Biotin; antibody 0.333 ug/mL diluted 1:729; replicate 1
[5] = biological target: CD73 endogenously expressed on the cell surface (MDA-MB-231 cells; U87-MG cells) (UniProt P21589); assay: flow cytometry on MDA-MB-231 cells; antibody 11.11 nM
[6] = biological target: CD73 endogenously expressed on the cell surface (MDA-MB-231 cells; U87-MG cells) (UniProt P21589); assay: flow cytometry on MDA-MB-231 cells; antibody 0.41 nM
[7] = biological target: human NT5E(1-552)-his (human) (UniProt P21589); assay: Fortebio BLI, antibody on Protein A sensor, antigen 3.125-200 nM, 37 C, 1:1 fit
[8] = biological target: human NT5E-Biotin (NT5E, GenbankID: NP_002517.1, position: 1-552) (human) (UniProt P21589); assay: ELISA on SA-captured NT5E-Biotin; antibody 0.333 ug/mL; replicate 1
[9] = biological target: human NT5E-Biotin (NT5E, GenbankID: NP_002517.1, position: 1-552) (human) (UniProt P21589); assay: ELISA on SA-captured NT5E-Biotin; antibody 0.333 ug/mL diluted 1:3; replicate 1
[10] = biological target: human NT5E-Biotin (NT5E, GenbankID: NP_002517.1, position: 1-552) (human) (UniProt P21589); assay: ELISA on SA-captured NT5E-Biotin; antibody 0 (blank); replicate 1
[11] = biological target: human NT5E-Biotin (NT5E, GenbankID: NP_002517.1, position: 1-552) (human) (UniProt P21589); assay: ELISA on SA-captured NT5E-Biotin; antibody 0.333 ug/mL diluted 1:3; replicate 2
[12] = biological target: human NT5E-Biotin (NT5E, GenbankID: NP_002517.1, position: 1-552) (human) (UniProt P21589); assay: ELISA on SA-captured NT5E-Biotin; antibody 0.333 ug/mL; replicate 2
[13] = biological target: CD73 endogenously expressed on the cell surface (MDA-MB-231 cells; U87-MG cells) (UniProt P21589); assay: flow cytometry on MDA-MB-231 cells; antibody 33.33 nM
[14] = biological target: human NT5E-Biotin (NT5E, GenbankID: NP_002517.1, position: 1-552) (human) (UniProt P21589); assay: ELISA on SA-captured NT5E-Biotin; antibody 0.333 ug/mL diluted 1:9; replicate 1
[15] = biological target: human NT5E-Biotin (NT5E, GenbankID: NP_002517.1, position: 1-552) (human) (UniProt P21589); assay: ELISA on SA-captured NT5E-Biotin; antibody 0 (blank); replicate 2
[16] = biological target: human NT5E-Biotin (NT5E, GenbankID: NP_002517.1, position: 1-552) (human) (UniProt P21589); assay: ELISA on SA-captured NT5E-Biotin; antibody 0.333 ug/mL diluted 1:9; replicate 2
[17] = biological target: human NT5E-Biotin (NT5E, GenbankID: NP_002517.1, position: 1-552) (human) (UniProt P21589); assay: ELISA on SA-captured NT5E-Biotin; antibody 0.333 ug/mL diluted 1:27; replicate 2
[18] = biological target: human NT5E-Biotin (NT5E, GenbankID: NP_002517.1, position: 1-552) (human) (UniProt P21589); assay: ELISA on SA-captured NT5E-Biotin; antibody 0.333 ug/mL diluted 1:27; replicate 1
[19] = biological target: human NT5E-Biotin (NT5E, GenbankID: NP_002517.1, position: 1-552) (human) (UniProt P21589); assay: ELISA on SA-captured NT5E-Biotin; antibody 0.333 ug/mL diluted 1:81; replicate 2
[20] = biological target: human NT5E-Biotin (NT5E, GenbankID: NP_002517.1, position: 1-552) (human) (UniProt P21589); assay: ELISA on SA-captured NT5E-Biotin; antibody 0.333 ug/mL diluted 1:81; replicate 1
[21] = biological target: human NT5E-Biotin (NT5E, GenbankID: NP_002517.1, position: 1-552) (human) (UniProt P21589); assay: ELISA on SA-captured NT5E-Biotin; antibody 0.333 ug/mL diluted 1:243; replicate 1
[22] = biological target: human NT5E-Biotin (NT5E, GenbankID: NP_002517.1, position: 1-552) (human) (UniProt P21589); assay: ELISA on SA-captured NT5E-Biotin; antibody 0.333 ug/mL diluted 1:243; replicate 2
[23] = biological target: CD73 endogenously expressed on the cell surface (MDA-MB-231 cells; U87-MG cells) (UniProt P21589); assay: flow cytometry on MDA-MB-231 cells; antibody 0.05 nM
[24] = biological target: human NT5E-Biotin (NT5E, GenbankID: NP_002517.1, position: 1-552) (human) (UniProt P21589); assay: ELISA on SA-captured NT5E-Biotin; antibody 0.333 ug/mL diluted 1:729; replicate 2
[25] = biological target: CD73 endogenously expressed on the cell surface (MDA-MB-231 cells; U87-MG cells) (UniProt P21589); assay: flow cytometry on MDA-MB-231 cells; antibody 0.14 nM

Sequence of human NT5E-Biotin (NT5E, GenbankID: NP_002517.1, position: 1-552) (human) (P21589 27-552 limits assumed, form in doubt): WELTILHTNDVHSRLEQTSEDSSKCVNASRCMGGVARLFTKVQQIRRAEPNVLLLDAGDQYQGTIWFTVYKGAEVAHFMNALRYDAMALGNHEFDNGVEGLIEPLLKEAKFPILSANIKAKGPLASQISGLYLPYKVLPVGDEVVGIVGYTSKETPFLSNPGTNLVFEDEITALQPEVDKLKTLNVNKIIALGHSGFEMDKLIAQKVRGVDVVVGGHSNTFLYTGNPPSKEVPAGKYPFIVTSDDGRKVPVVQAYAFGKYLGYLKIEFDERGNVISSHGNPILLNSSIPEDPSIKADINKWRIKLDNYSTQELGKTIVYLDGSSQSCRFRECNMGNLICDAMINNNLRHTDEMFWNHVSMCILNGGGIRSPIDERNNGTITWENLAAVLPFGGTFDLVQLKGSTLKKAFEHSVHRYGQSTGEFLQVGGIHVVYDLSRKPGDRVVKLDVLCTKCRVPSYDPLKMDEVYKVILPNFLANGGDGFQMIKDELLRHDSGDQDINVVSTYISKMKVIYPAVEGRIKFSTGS
Sequence of CD73 endogenously expressed on the cell surface (MDA-MB-231 cells; U87-MG cells) (P21589 27-549 limits assumed): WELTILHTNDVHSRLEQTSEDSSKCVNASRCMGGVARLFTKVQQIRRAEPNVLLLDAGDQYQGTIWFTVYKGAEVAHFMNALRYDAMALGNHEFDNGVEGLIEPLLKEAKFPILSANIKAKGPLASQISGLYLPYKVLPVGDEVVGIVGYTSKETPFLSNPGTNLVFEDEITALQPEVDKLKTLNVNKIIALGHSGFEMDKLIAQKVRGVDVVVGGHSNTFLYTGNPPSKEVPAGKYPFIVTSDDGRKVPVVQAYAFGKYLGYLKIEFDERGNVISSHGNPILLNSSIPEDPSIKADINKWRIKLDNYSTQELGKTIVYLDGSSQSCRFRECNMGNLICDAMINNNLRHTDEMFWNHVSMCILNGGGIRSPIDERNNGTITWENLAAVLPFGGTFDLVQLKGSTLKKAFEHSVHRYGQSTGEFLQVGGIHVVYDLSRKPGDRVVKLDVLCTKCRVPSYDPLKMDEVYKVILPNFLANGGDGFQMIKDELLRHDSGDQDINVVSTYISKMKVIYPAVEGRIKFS
Sequence of human NT5E(1-552)-his (human) (P21589 27-552 limits assumed, form in doubt): as the sequence (P21589 27-552 limits assumed, form in doubt) above

## positive control antibody MEDI9447 (oleclumab)
[1]
  fluorescence intensity (FACS): 267
[2]
  fluorescence intensity (FACS): 581
[3]
  fluorescence intensity (FACS): 454
[4]
  OD 450 nm: 0.272 OD450
[5]
  fluorescence intensity (FACS): 519
[6]
  fluorescence intensity (FACS): 91
[7]
  S E (kdis): 5.02e-06 s⁻¹
[8]
  OD 450 nm: 2.55 OD450
[9]
  OD 450 nm: 2.57 OD450
[10]
  OD 450 nm: 0.121 OD450
[11]
  OD 450 nm: 2.6 OD450
[12]
  OD 450 nm: 2.53 OD450
[13]
  fluorescence intensity (FACS): 546
[14]
  OD 450 nm: 2.27 OD450
[15]
  OD 450 nm: 0.116 OD450
[16]
  OD 450 nm: 2.28 OD450
[17]
  OD 450 nm: 1.74 OD450
[18]
  OD 450 nm: 1.77 OD450
[19]
  OD 450 nm: 1.03 OD450
[20]
  OD 450 nm: 1.06 OD450
[21]
  OD 450 nm: 0.536 OD450
[22]
  OD 450 nm: 0.528 OD450
[23]
  fluorescence intensity (FACS): 28.4
[24]
  OD 450 nm: 0.275 OD450
[25]
  fluorescence intensity (FACS): 43.2
